Test [1] concerns the target T1, biotinylated murine CCL20, O89093.
T1 chain: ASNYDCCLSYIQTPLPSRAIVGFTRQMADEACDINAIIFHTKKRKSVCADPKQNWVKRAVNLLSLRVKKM
The experiment in a line: capture ELISA. The conditions noted are these: chain shown with the change; highest mAb concentration, log[nM] about 1.8; plate-coated anti-Fc antibody to capture the antibody variants; parent: est. 1.8; read off a plot.

The target in test [2] is T2, biotinylated murine CCL20 (Mus musculus, UniProt O89093, biotin).
T2 construct: CCL20, mouse; recombinant; m2 with biotin; also called biotinylated muCCL20; muCCL20 antigen; source: in-house, standard mammalian cell expression; biotinylated
Nature of the test: ELISA; capture ELISA: plate-coated anti-mouse Fc antibody (1 ug/mL) captures the antibody variant (5 ug/mL); biotinylated muCCL20 titrated from 0 to 600 nM, 1 h. The following applies: both partners purified.

In the next test the target is murine CCL20 (mouse) (UniProt O89093).
Test [3] addresses T3, murine CCL20 (Mus musculus, UniProt O89093).
T3 construct: CCL20, mouse; recombinant; also called muCCL20; mouse CCL20; source: in-house, standard mammalian cell expression; purified
The experiment in a line: ELISA; mouse or human CCL20 coated at 2 ug/mL on Maxisorp plates overnight at 4°C; antibody dilutions starting at 60 nM; detected with anti-Fc-HRP. The conditions noted are these: both partners purified.

Test [4] concerns the target T4, murine CCL20 (mouse, UniProt O89093 28-97).
T4 chain: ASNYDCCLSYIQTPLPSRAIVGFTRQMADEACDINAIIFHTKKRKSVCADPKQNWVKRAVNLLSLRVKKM
Nature of the test: SPR.

Test [5] addresses T4, murine CCL20. The experiment in a line: SPR.
Test [6] concerns the target T3, murine CCL20. The experiment in a line: SPR; Biacore T200; muCCL20 immobilised on a CM4 chip (~30 RU); Fab 0.02-50 nM at 100 uL/min; HBS-EP pH 7.4; 1:1 model; apparent KD = koff/kon. The conditions noted are these: both partners purified.

B1: AB1 alanine variant 7 (H:S28A, H:N113A, L:K36A) (antibody, V domains shown)
VH: QVQLQQSGAELAKPGSSVKISCKAYGASFTTNSIHWIKQTTGQALEWTGYIAPGSGGARYNEKFKGKATLTVDKSSGTAYMQLSSLTPVDTAVYYCALNIGTAPFTYWGQGTLVTVSS
VL: DIVMTQGALPNPVPSGESVSITCRSSKSLLYSDGATYLNWYLQRPGQSPQLLIYWMSTRASGVSDRFSGSGSGTDFTLKISGVEAEDVGVYYCQQGLEFPRTFGSGTKLEIK
notes: IMGT numbering; IgG1, as m1; source: HEK293FT, transiently transfected, purified (Protein A)
As to B1, the response in test [1] stood at 0.86 A450. The binding result in test [2] is given as “binds”.

B2: AB1-C1 (H:S28R) (antibody, V domains shown)
VH: QVQLQQSGAELAKPGSSVKISCKAYGRSFTTNSIHWIKQTTGQALEWTGYIAPGSGGARYNEKFKGKATLTVDKSSGTAYMQLSSLTPVDTAVYYCALNIGTNPFTYWGQGTLVTVSS
VL: DIVMTQGALPNPVPSGESVSITCRSSKSLLYSDGKTYLNWYLQRPGQSPQLLIYWMSTRASGVSDRFSGSGSGTDFTLKISGVEAEDVGVYYCQQGLEFPRTFGSGTKLEIK
As for B2, the fold decrease in antibody IC50 against parental AB1, CCR6 CHO-K1 β-arrestin assay with 4 nM muCCL20; blocks muCCL20 with muCCR6 with murine CCL20 (mouse) was found to be 4 fold.

B3: AB1-C1-16 (H:S28R, L:G35Y) (antibody, V domains shown)
VH: QVQLQQSGAELAKPGSSVKISCKAYGRSFTTNSIHWIKQTTGQALEWTGYIAPGSGGARYNEKFKGKATLTVDKSSGTAYMQLSSLTPVDTAVYYCALNIGTNPFTYWGQGTLVTVSS
VL: DIVMTQGALPNPVPSGESVSITCRSSKSLLYSDYKTYLNWYLQRPGQSPQLLIYWMSTRASGVSDRFSGSGSGTDFTLKISGVEAEDVGVYYCQQGLEFPRTFGSGTKLEIK
notes: IMGT numbering; IgG1, as m1; also called clone 1–16; combination clone; source: HEK293FT, transiently transfected, purified (Protein A)
In the case of B3, the fold decrease in antibody IC50 against parental AB1, CCR6 CHO-K1 β-arrestin assay with 4 nM muCCL20; blocks muCCL20 with muCCR6 with murine CCL20 (mouse) worked out at 4 fold. Moreover, in test [2], the binding result is reported as “binds”.

B4: AB1 anti-muCCL20 monoclonal antibody (antibody, V domains shown)
VH: QVQLQQSGAELAKPGSSVKISCKAYGSSFTTNSIHWIKQTTGQALEWTGYIAPGSGGARYNEKFKGKATLTVDKSSGTAYMQLSSLTPVDTAVYYCALNIGTNPFTYWGQGTLVTVSS
VL: DIVMTQGALPNPVPSGESVSITCRSSKSLLYSDGKTYLNWYLQRPGQSPQLLIYWMSTRASGVSDRFSGSGSGTDFTLKISGVEAEDVGVYYCQQGLEFPRTFGSGTKLEIK
notes: VH of AB1; VL of AB1; IgG1 (in-house mammalian expression vector); hybridoma derived; also called WT AB1; parental AB1; source: HEK293FT, transiently transfected, purified from supernatant (Protein A)
As to B4, the binding result (with murine CCL20 [3]; in test [2]) was “binds” each time.

B5: AB1-C16 (L:G35Y) (antibody, V domains shown)
VH: QVQLQQSGAELAKPGSSVKISCKAYGSSFTTNSIHWIKQTTGQALEWTGYIAPGSGGARYNEKFKGKATLTVDKSSGTAYMQLSSLTPVDTAVYYCALNIGTNPFTYWGQGTLVTVSS
VL: DIVMTQGALPNPVPSGESVSITCRSSKSLLYSDYKTYLNWYLQRPGQSPQLLIYWMSTRASGVSDRFSGSGSGTDFTLKISGVEAEDVGVYYCQQGLEFPRTFGSGTKLEIK
notes: IMGT numbering; IgG1, as m1; also called clone 16; VL clone 16; source: HEK293FT, transiently transfected, purified (Protein A)
As to B5, the fold decrease in antibody IC50 against parental AB1, CCR6 CHO-K1 β-arrestin assay with 4 nM muCCL20; blocks muCCL20 with muCCR6 with murine CCL20 (mouse) is 2 fold. Further, the binding result in test [2] is recorded as “binds”.

B6: AB1-C16 Fab fragment (L:G35Y) (Fab, V domains shown)
VH: QVQLQQSGAELAKPGSSVKISCKAYGSSFTTNSIHWIKQTTGQALEWTGYIAPGSGGARYNEKFKGKATLTVDKSSGTAYMQLSSLTPVDTAVYYCALNIGTNPFTYWGQGTLVTVSS
VL: DIVMTQGALPNPVPSGESVSITCRSSKSLLYSDYKTYLNWYLQRPGQSPQLLIYWMSTRASGVSDRFSGSGSGTDFTLKISGVEAEDVGVYYCQQGLEFPRTFGSGTKLEIK
notes: IMGT numbering; Fab of m43; source: papain cleavage of the purified antibody; purified by anion and cation exchange chromatography
As to B6, the koff with murine CCL20 [4] came out at 0.007 s⁻¹. Also, in the test with murine CCL20 [5], the Kd was 8.4 nM. Besides, in the test with murine CCL20 [6], the binding result is listed as “binds”.

B7: AB1-C1-16 Fab fragment (H:S28R, L:G35Y) (Fab, V domains shown)
VH: QVQLQQSGAELAKPGSSVKISCKAYGRSFTTNSIHWIKQTTGQALEWTGYIAPGSGGARYNEKFKGKATLTVDKSSGTAYMQLSSLTPVDTAVYYCALNIGTNPFTYWGQGTLVTVSS
VL: DIVMTQGALPNPVPSGESVSITCRSSKSLLYSDYKTYLNWYLQRPGQSPQLLIYWMSTRASGVSDRFSGSGSGTDFTLKISGVEAEDVGVYYCQQGLEFPRTFGSGTKLEIK
notes: IMGT numbering; Fab of m48; also called combination clone AB1-C1-16; source: papain cleavage of the purified antibody; purified by anion and cation exchange chromatography
In the case of B7, in the test with murine CCL20 [4], the koff worked out at 0.0042 s⁻¹. Further, binding with murine CCL20 [5] was put at a Kd of 2.8 nM. Moreover, in the test with murine CCL20 [6], the binding result is “binds”.

B8: AB1 Fab fragment (Fab, V domains shown)
VH: QVQLQQSGAELAKPGSSVKISCKAYGSSFTTNSIHWIKQTTGQALEWTGYIAPGSGGARYNEKFKGKATLTVDKSSGTAYMQLSSLTPVDTAVYYCALNIGTNPFTYWGQGTLVTVSS
VL: DIVMTQGALPNPVPSGESVSITCRSSKSLLYSDGKTYLNWYLQRPGQSPQLLIYWMSTRASGVSDRFSGSGSGTDFTLKISGVEAEDVGVYYCQQGLEFPRTFGSGTKLEIK
notes: Fab of m1; also called parental AB1 (Fab); source: papain cleavage of the purified antibody; purified by anion and cation exchange chromatography
Consider B8, for which the koff with murine CCL20 [4] is 0.0077 s⁻¹. Further, binding with murine CCL20 [5] was put at a Kd of 9.1 nM. For the same molecule, the binding result with murine CCL20 [6] is “binds”.

B9: AB1-C1 Fab fragment (H:S28R) (Fab, V domains shown)
VH: QVQLQQSGAELAKPGSSVKISCKAYGRSFTTNSIHWIKQTTGQALEWTGYIAPGSGGARYNEKFKGKATLTVDKSSGTAYMQLSSLTPVDTAVYYCALNIGTNPFTYWGQGTLVTVSS
VL: DIVMTQGALPNPVPSGESVSITCRSSKSLLYSDGKTYLNWYLQRPGQSPQLLIYWMSTRASGVSDRFSGSGSGTDFTLKISGVEAEDVGVYYCQQGLEFPRTFGSGTKLEIK
notes: IMGT numbering; Fab of m28; also called Clone AB1-C1; source: papain cleavage of the purified antibody; purified by anion and cation exchange chromatography
B9 came in with a koff with murine CCL20 [4] of 0.0029 s⁻¹. For the same molecule, binding in the test with murine CCL20 [5] was characterised by a dissociation constant (Kd) of 2.3 nM. In addition, in the test with murine CCL20 [6], the “fold improvement in KD against parental AB1” value was found to be 4 fold.
